Paper PMC3143821 (Molecular cell, 2011)

B1: TRBP (natural protein, human, UniProt Q15633 1-366, looked up)
chain: MSEEEQGSGTTTGCGLPSIEQMLAANPGKTPISLLQEYGTRIGKTPVYDLLKAEGQAHQPNFTFRVTVGDTSCTGQGPSKKAAKHKAAEVALKHLKGGSMLEPALEDSSSFSPLDSSLPEDIPVFTAAAAATPVPSVVLTRSPPMELQPPVSPQQSECNPVGALQELVVQKGWRLPEYTVTQESGPAHRKEFTMTCRVERFIEIGSGTSKKLAKRNAAAKMLLRVHTVPLDARDGNEVEPDDDHFSIGVGSRLDGLRNRGPGCTWDSLRNSVGEKILSLRSCSLGSLGALGPACCRVLSELSEEQAFHVSYLDIEELSLSGLCQCLVELSTQPATVCHGSATTREAARGEAARRALQYLKIMAGSK
B2: Argonaute2 (Ago2) (enzyme)
chain: not shown
B3: PACT (natural protein, human, UniProt O75569 1-313, looked up)
chain: MSQSRHRAEAPPLEREDSGTFSLGKMITAKPGKTPIQVLHEYGMKTKNIPVYECERSDVQIHVPTFTFRVTVGDITCTGEGTSKKLAKHRAAEAAINILKANASICFAVPDPLMPDPSKQPKNQLNPIGSLQELAIHHGWRLPEYTLSQEGGPAHKREYTTICRLESFMETGKGASKKQAKRNAAEKFLAKFSNISPENHISLTNVVGHSLGCTWHSLRNSPGEKINLLKRSLLSIPNTDYIQLLSEIAKEQGFNITYLDIDELSANGQYQCLAELSTSPITVCHGSGISCGNAQSDAAHNALQYLKIIAERK

molecular target: human Dicer (human, UniProt Q9UPY3 1-1922); assay: in vitro reconstitution of the complex
Sequence (Q9UPY3 whole entry): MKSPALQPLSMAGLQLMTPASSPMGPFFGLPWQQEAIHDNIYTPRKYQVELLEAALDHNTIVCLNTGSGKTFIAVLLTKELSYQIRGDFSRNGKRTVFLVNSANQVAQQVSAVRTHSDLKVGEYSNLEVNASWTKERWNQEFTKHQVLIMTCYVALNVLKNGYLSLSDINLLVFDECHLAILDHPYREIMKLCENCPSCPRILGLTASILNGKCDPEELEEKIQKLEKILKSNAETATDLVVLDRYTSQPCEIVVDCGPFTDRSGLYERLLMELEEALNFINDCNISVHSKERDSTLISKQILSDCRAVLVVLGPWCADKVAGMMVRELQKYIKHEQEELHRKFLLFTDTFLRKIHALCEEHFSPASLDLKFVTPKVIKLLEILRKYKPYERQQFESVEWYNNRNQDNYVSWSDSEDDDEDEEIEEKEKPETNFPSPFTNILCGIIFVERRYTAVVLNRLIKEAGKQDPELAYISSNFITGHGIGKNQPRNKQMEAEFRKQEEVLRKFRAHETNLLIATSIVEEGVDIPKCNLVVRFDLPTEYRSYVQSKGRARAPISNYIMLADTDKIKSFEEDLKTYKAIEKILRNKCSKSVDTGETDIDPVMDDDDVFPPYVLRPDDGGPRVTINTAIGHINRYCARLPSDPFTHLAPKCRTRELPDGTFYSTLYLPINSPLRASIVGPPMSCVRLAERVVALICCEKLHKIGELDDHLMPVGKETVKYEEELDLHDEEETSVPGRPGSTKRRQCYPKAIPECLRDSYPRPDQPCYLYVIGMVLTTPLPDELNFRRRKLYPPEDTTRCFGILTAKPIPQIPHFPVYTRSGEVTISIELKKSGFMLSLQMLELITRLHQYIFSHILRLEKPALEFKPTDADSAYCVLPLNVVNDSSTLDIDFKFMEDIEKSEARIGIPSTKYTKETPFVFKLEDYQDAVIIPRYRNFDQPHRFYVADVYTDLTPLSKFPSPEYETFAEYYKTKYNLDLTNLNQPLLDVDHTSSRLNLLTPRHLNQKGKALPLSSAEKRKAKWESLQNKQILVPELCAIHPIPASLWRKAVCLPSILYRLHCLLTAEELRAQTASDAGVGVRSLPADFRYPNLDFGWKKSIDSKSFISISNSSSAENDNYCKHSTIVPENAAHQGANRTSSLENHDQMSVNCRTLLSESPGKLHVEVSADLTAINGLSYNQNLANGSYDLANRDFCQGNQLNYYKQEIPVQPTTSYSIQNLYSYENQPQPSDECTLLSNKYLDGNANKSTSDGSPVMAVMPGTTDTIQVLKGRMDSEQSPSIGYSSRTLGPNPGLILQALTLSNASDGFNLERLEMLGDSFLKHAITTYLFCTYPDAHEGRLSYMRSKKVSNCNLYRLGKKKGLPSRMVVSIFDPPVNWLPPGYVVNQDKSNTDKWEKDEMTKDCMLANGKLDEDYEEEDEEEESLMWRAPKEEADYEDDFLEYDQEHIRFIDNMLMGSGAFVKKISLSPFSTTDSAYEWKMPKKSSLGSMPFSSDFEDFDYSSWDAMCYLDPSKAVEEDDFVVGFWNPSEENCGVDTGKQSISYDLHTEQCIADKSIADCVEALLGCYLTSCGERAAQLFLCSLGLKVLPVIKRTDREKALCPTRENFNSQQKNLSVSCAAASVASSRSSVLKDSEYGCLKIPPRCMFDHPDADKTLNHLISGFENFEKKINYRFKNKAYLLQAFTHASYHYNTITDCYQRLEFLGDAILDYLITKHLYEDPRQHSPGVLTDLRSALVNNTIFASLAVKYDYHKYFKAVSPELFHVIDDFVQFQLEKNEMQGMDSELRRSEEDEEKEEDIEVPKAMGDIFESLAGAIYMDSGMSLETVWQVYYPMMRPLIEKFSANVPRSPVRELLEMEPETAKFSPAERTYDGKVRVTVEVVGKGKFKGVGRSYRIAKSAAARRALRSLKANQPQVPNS

Row | binding result | Binder
1 | binds | B1
2 | binds | B2
3 | binds | B3
